# Assay results reported in US20220289814A1.
# Experiments:
# Assay in all cases: cell-based or functional assay
# [1] = target: M666 ITAM-modified BCMA CAR (ISD: Linker 6-CD3ζ ITAM2-Linker 1-CD3ζ ITAM2-Linker 7-CD3ζ ITAM2-Linker 2) (UniProt P01732)
# [2] = target: M665 ITAM-modified BCMA CAR (ISD: Linker 6-CD3ζ ITAM1-Linker 1-CD3ζ ITAM1-Linker 7-CD3ζ ITAM1-Linker 2) (UniProt P01732)
# [3] = target: M663 ITAM-modified BCMA CAR (ISD: Linker 6-CD3ζ ITAM1-Linker 1-CD3ζ ITAM2-Linker 7-CD3ζ ITAM3-Linker 2) (UniProt P01732)
# Sequence of M663 ITAM-modified BCMA CAR (ISD: Linker 6-CD3ζ ITAM1-Linker 1-CD3ζ ITAM2-Linker 7-CD3ζ ITAM3-Linker 2) (P01732 whole entry): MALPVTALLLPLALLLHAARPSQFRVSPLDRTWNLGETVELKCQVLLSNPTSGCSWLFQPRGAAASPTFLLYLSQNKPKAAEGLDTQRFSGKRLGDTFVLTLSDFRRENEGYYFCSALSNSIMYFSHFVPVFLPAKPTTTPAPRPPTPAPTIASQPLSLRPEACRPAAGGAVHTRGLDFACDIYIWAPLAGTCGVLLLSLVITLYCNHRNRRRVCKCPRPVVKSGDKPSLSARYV
# Sequence of M665 ITAM-modified BCMA CAR (ISD: Linker 6-CD3ζ ITAM1-Linker 1-CD3ζ ITAM1-Linker 7-CD3ζ ITAM1-Linker 2) (P01732 whole entry): as above
# Sequence of M666 ITAM-modified BCMA CAR (ISD: Linker 6-CD3ζ ITAM2-Linker 1-CD3ζ ITAM2-Linker 7-CD3ζ ITAM2-Linker 2) (P01732 whole entry): as above
substance,measurement,setting,value
wildtype SIV Nef,"Relative ISD-modified CAR expression (CAR positive rate, FACS with FITC-labeled human BCMA, normalized to empty vector control), day 3 after Nef transduction",[1],57%
same,"Relative ISD-modified CAR expression (CAR positive rate, FACS with FITC-labeled human BCMA, normalized to empty vector control), day 3 after Nef transduction",[2],82.3%
same,"Relative ISD-modified CAR expression (CAR positive rate, FACS with FITC-labeled human BCMA, normalized to empty vector control), day 3 after Nef transduction",[3],46.7%
